Test results published in doi:10.1101/2020.01.24.918300 (bioRxiv, 2020).

Target: the molecule itself
Test: single-molecule photobleaching step counting on DNA tightropes

B1: cJun bZIP region fused to mNeonGreen (domain or fragment)
chain: RIKAERKRMRNRIAASKCRKRKLERIARLEEKVKTLKAQNSELASTANMLREQVAQLKQKVMNH
stoichiometry N: 2
